From patent publication US20240016956A1 come the findings set out here.

Values joined by “and” are separate entries in the source; they are usually repeats but may differ in a detail not shown here. Equal values may be shown once.

The target in the experiment is AAV9 capsid (of the vector AAV9.CAG.GFP / AAV9 test virus) (AAV9). Nature of the experiment: cell-based or functional assay.

For “IVIG (intravenous immunoglobulin), a purified mix of IgG obtained from thousands of healthy donors”, the AAV9 NAb50 Titer in HEK293 cells (fresh IVIG sample) (reciprocal dilution) was 160 and 320.
